B1: TOR1AIP2 (parent)
chain: HHVADAYTSSQKVSPIQIDGAGRT
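Further: lentivirally expressed fusions sorted by FACS into six bins by GFP to DsRed ratio, PSI derived from sequencing read proportions per bin multiplied by bin number.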

This series covers variants of B1. Briefly: protein stability index of a GFP-peptide fusion (GPS, HEK-293T) (PSI 1-6); higher = more stable. The settings on record: c terminus: a fixed tail appended.
HHVADAYTSSQKVSPIQIGGAGRT [D19G]: the protein stability index turned out to be 3.4.

On to HHVADAYTSSQKVSPIQIVGAGRT [D19V], for which the protein stability index amounted to 3.28. For the variant HHVADAYTSSQKVSPIQIMGAGRT [D19M], the protein stability index was determined as 2.7. To HHVADAYTSSQKVSPICIDGAGRT [Q17C] belongs 3.26. Take HHVADAYTSSQKVSPIEIDGAGRT [Q17E]: the protein stability index is 3.65. To HHVADAYTSSQKVSPIQIDGAGRQ [T24Q] belongs 3.3; to HHVADAYTSSQKVSPIQIDGAGRE [T24E], 4. Regarding HHVADAYTSSQKVSPIQIDGAGRY [T24Y], the protein stability index was found to be 2.93.

For the variant HHVADAYTSSQKVSPIQIDGAGRD [T24D], the protein stability index was determined as 4.18.

On to HHVADAYTSSQKVSPIQIDGAGRK [T24K], for which the protein stability index was 3.9. To HHVADAYTSSQKVSPIQIDGAGRM [T24M] belongs 2.98.

As for GHVADAYTSSQKVSPIQIDGAGRT [H1G], the protein stability index amounted to 4.43. As for EHVADAYTSSQKVSPIQIDGAGRT [H1E], the protein stability index is 4.66. Turning to LHVADAYTSSQKVSPIQIDGAGRT [H1L], the protein stability index was found to be 3.81. Next, KHVADAYTSSQKVSPIQIDGAGRT [H1K]: 3.94; THVADAYTSSQKVSPIQIDGAGRT [H1T]: 3.94. Next, YHVADAYTSSQKVSPIQIDGAGRT [H1Y]: 3.09; HHVADAYTSSQKVSPIQIDGATRT [G22T]: 3.09; HHVADAYTSSQKVSPIQIDGAHRT [G22H]: 3.47.

Consider HHVADAYTSSQKVSPIQIDGASRT [G22S], for which the protein stability index worked out at 3.36. To HHVADAYTSSQKVSPIQIDGARRT [G22R] belongs 3.19. To HHVADAYTSSQKVSPIQIDGAVRT [G22V] belongs 3.4; to HHVADAYTSSQKVSPIQVDGAGRT [I18V], 3.76; to HHVADAYTSPQKVSPIQIDGAGRT [S10P], 3.87. As to HHVADAYTSMQKVSPIQIDGAGRT [S10M], the protein stability index came to 2.93. To HHVADAYTSRQKVSPIQIDGAGRT [S10R] belongs 2.64; to HHVADAYTSSQKVSPIQIDGAGMT [R23M], 3.26; to HHVADAYTSSQKVSPIQIDGAGWT [R23W], 3.1. As for HHVADAYTSSQKVSPIQIDGAGDT [R23D], the protein stability index amounted to 4.11. Take HHVADAYTSSQKVSPIQIDGAGVT [R23V]: the protein stability index was 3.29. To HHVADAYTSSQKVSPIQIDGAGFT [R23F] belongs 3.12.

Regarding HHVADAYTSSPKVSPIQIDGAGRT [Q11P], the protein stability index turned out to be 3.74. On to HHVADAYTSSIKVSPIQIDGAGRT [Q11I], for which the protein stability index was 3. To HHVADAYTSSMKVSPIQIDGAGRT [Q11M] belongs 3.15. Turning to HHVADAYTSSRKVSPIQIDGAGRT [Q11R], the protein stability index is 2.95. As to HHVADAYTSSQVVSPIQIDGAGRT [K12V], the protein stability index amounted to 3.47. To HMVADAYTSSQKVSPIQIDGAGRT [H2M] belongs 2.81; to HSVADAYTSSQKVSPIQIDGAGRT [H2S], 4.08; to HVVADAYTSSQKVSPIQIDGAGRT [H2V], 1.99. As for HIVADAYTSSQKVSPIQIDGAGRT [H2I], the protein stability index was determined as 2.08. Turning to HLVADAYTSSQKVSPIQIDGAGRT [H2L], the protein stability index amounted to 1.86.

Consider HHVADAYTGSQKVSPIQIDGAGRT [S9G], for which the protein stability index amounted to 3.79. Next, HHVADAYTKSQKVSPIQIDGAGRT [S9K]: 4.43. Next, HHVADAYTDSQKVSPIQIDGAGRT [S9D]: 4.04; HHVADAYTISQKVSPIQIDGAGRT [S9I]: 2.42. Next, HHVAMAYTSSQKVSPIQIDGAGRT [D5M]: 2.48; HHVAGAYTSSQKVSPIQIDGAGRT [D5G]: 3.97. HHVAVAYTSSQKVSPIQIDGAGRT [D5V]: the protein stability index was determined as 2.7. Next, HHVAWAYTSSQKVSPIQIDGAGRT [D5W]: 4.17. To HHVADAYTSSQKVSCIQIDGAGRT [P15C] belongs 3.66. Turning to HHVADAYTSSQKVSQIQIDGAGRT [P15Q], the protein stability index worked out at 3.43. To HHVADAYTSSQKVSRIQIDGAGRT [P15R] belongs 3.26.

Regarding HHVADAYTSSQKVSPNQIDGAGRT [I16N], the protein stability index came out at 3.88. Next, HHVADAYTSSQKVSPAQIDGAGRT [I16A]: 3.72; HHVADAYTSSQKVSPQQIDGAGRT [I16Q]: 3.69; HHVADAYTSSQKVSPDQIDGAGRT [I16D]: 4.46.

With HHVADAHTSSQKVSPIQIDGAGRT [Y7H], the protein stability index is 4.84. As to HHVADANTSSQKVSPIQIDGAGRT [Y7N], the protein stability index is 4.89. To HHVADASTSSQKVSPIQIDGAGRT [Y7S] belongs 4.87. With HHVADAETSSQKVSPIQIDGAGRT [Y7E], the protein stability index is 4.97. Consider HHVADADTSSQKVSPIQIDGAGRT [Y7D], for which the protein stability index was 4.67.

Regarding HHVADAITSSQKVSPIQIDGAGRT [Y7I], the protein stability index worked out at 4.75. Next, HHVADAATSSQKVSPIQIDGAGRT [Y7A]: 5.04; HHVADATTSSQKVSPIQIDGAGRT [Y7T]: 4.98; HHVADAFTSSQKVSPIQIDGAGRT [Y7F]: 2.73.

On to HHVADAYTSSQKVYPIQIDGAGRT [S14Y], for which the protein stability index worked out at 2.71. With HHVADAYTSSQKVIPIQIDGAGRT [S14I], the protein stability index came out at 2.94. Next, HHVADAYTSSQKVKPIQIDGAGRT [S14K]: 3.45; HHVPDAYTSSQKVSPIQIDGAGRT [A4P]: 2.34. To HHVSDAYTSSQKVSPIQIDGAGRT [A4S] belongs 3.84; to HHVIDAYTSSQKVSPIQIDGAGRT [A4I], 3.01; to HHVDDAYTSSQKVSPIQIDGAGRT [A4D], 4.76. With HHVKDAYTSSQKVSPIQIDGAGRT [A4K], the protein stability index worked out at 3.86. To HHLADAYTSSQKVSPIQIDGAGRT [V3L] belongs 3.77; to HHCADAYTSSQKVSPIQIDGAGRT [V3C], 1.75.

In the case of HHAADAYTSSQKVSPIQIDGAGRT [V3A], the protein stability index amounted to 1.62. To HHNADAYTSSQKVSPIQIDGAGRT [V3N] belongs 2.04. Next, HHVADAYSSSQKVSPIQIDGAGRT [T8S]: 3.69; HHVADAYNSSQKVSPIQIDGAGRT [T8N]: 3.88; HHVADAYLSSQKVSPIQIDGAGRT [T8L]: 4.14.

Take HHVADAYHSSQKVSPIQIDGAGRT [T8H]: the protein stability index is 4.14.

HHVADAYRSSQKVSPIQIDGAGRT [T8R]: the protein stability index turned out to be 3.49. HHVADAYFSSQKVSPIQIDGAGRT [T8F]: the protein stability index was 3.27.

For the variant HHVADAYTSSQKVSPIQIDGMGRT [A21M], the protein stability index was 3.58. To HHVADAYTSSQKVSPIQIDGPGRT [A21P] belongs 3.48. To HHVADAYTSSQKVSPIQIDGKGRT [A21K] belongs 3.42; to HHVADAYTSSQKVSPIQIDGNGRT [A21N], 3.44. Next, HHVADAYTSSQKQSPIQIDGAGRT [V13Q]: 3.85; HHVADAYTSSQKKSPIQIDGAGRT [V13K]: 3.66; HHVADAYTSSQKASPIQIDGAGRT [V13A]: 3.27. Turning to HHVADAYTSSQKHSPIQIDGAGRT [V13H], the protein stability index turned out to be 3.76.

In the case of HHVADAYTSSQKLSPIQIDGAGRT [V13L], the protein stability index worked out at 3.56. As for HHVADAYTSSQKYSPIQIDGAGRT [V13Y], the protein stability index was 3.43. For HHVADAYTSSQKDSPIQIDGAGRT [V13D], the protein stability index was 4.

(Values after the supplement of paper PMC10567573.)
